Patent US20200317768A1 (published 2020)
Residue numbers refer to the chain shown, from its start. Names may count otherwise.

Columns and labels:
Test in all cases: SPR 25C; FcgR bound per captured antibody, relative to parent B3
[1] = target: T1, human FcγRIIaH extracellular domain, C-terminal His-tag (human, UniProt P12318 34-217)
T1 construct: also called human FcγRIIa (type H); FcgRIIaH
T1 sequence: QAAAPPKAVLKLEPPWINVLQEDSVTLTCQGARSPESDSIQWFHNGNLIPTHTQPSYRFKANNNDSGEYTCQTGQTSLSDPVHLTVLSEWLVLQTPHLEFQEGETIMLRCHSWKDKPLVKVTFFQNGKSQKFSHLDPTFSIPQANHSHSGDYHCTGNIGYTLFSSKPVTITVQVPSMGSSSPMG
Procedure: (§1) These Fc variants are referred to as B3 variants. B3 variants were expressed and the binding of protein-A purified antibodies to each FcγR (FcγRIIa type H. FcγRIIa type R, FcγRIIb, and FcγRIIIaF) was comprehensively evaluated as follows. Analysis of interaction between each altered antibody and the Fcγ receptor prepared as mentioned above was carried out using BIACORE® T100 (GE Healthcare), BIACORE® T200 (GE Healthcare), BIACORE® A100, or BIACORE® 4000. HBS-EP+(GE Healthcare) was used as the running buffer, and the measurement temperature was set to 25° C. Chips produced by immobilizing Protein A (Thermo Scientific), Protein A/G (Thermo Scientific), or Protein L (ACTIGEN or BioVision) by the amine coupling method to a Series S sensor Chip CM5 or CM4 (GE Healthcare) were used. After capturing of antibodies of interest onto these sensor chips, an Fcγ receptor diluted with the running buffer was allowed to interact, the amount bound to an antibody was measured. However, since the amount of Fcγ receptor bound depends on the amount of the captured antibodies, the amount of Fcγ receptor bound was divided by the amount of each antibody captured to obtain corrected values, and these values were compared. Furthermore, antibodies captured onto the chips were washed by 10 mM glycine-HCl pH1.5, and the chips were regenerated and used repeatedly. […] The value obtained by multiplying this value by 100 was used as an indicator of the relative FcγR-binding activity of each variant.

[2] = target: T2, human FcγRIIaR extracellular domain, C-terminal His-tag (human, UniProt P12318 34-217)
T2 construct: also called human FcγRIIa (type R); FcgRIIaR
T2 chain: T1 sequence with H134R
Procedure: as §1

[3] = target: T3, human FcγRIIb extracellular domain, C-terminal His-tag (human, UniProt P31994 43-217)
T3 construct: also called FcgRIIb (human)
T3 sequence: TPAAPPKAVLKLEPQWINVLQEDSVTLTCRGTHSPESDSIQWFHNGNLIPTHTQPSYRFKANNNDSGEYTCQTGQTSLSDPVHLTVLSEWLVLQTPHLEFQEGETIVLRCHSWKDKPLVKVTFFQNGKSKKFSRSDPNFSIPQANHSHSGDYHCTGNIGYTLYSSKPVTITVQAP
Procedure: as §1

B1: GpH7-B3 variant G236N/GpL16-k0 (antibody, human IgG1, kappa)
heavy: not shown
light: DIVMTQSPLSLPVTPGEPASISCQASESLVHSNRNTYLHWYLQKPGQSPQLLIYKVSNRFSGVPDRFSGSGSGTDFTLKISRVEAEDVGVYYCSQNTHVPPTFGQGTKVEIERTVAAPSVFIFPPSDEQLKSGTASVVCLLNNFYPREAKVQWKVDNALQSGNSQESVTEQDSKDSTYSLSSTLTLSKADYEKHKVYACEVTHQGLSSPVTKSFNRGEC
B1 was tested, and the “Binding to human FcgRs (parent B3 = 100)” value [1] was 54 parent B3 = 100, the “Binding to human FcgRs (parent B3 = 100)” value [2] was 81 parent B3 = 100 and the “Binding to human FcgRs (parent B3 = 100)” value [3] was 75 parent B3 = 100.

B2: GpH7-B3 variant H268E/GpL16-k0 (antibody, human IgG1, kappa)
heavy: not shown
light: B1 light
B2 was tested, and the “Binding to human FcgRs (parent B3 = 100)” value [1] was 169 parent B3 = 100, the “Binding to human FcgRs (parent B3 = 100)” value [2] was 132 parent B3 = 100 and the “Binding to human FcgRs (parent B3 = 100)” value [3] was 283 parent B3 = 100.

B3: GpH7-B3 variant G237D/GpL16-k0 (antibody, human IgG1, kappa)
heavy: not shown
light: B1 light
For B3, the “Binding to human FcgRs (parent B3 = 100)” value [1] was 74 parent B3 = 100, the “Binding to human FcgRs (parent B3 = 100)” value [2] was 0 parent B3 = 100 and the “Binding to human FcgRs (parent B3 = 100)” value [3] was 95 parent B3 = 100.

B4: GpH7-B3 variant K326T/GpL16-k0 (antibody, human IgG1, kappa)
heavy: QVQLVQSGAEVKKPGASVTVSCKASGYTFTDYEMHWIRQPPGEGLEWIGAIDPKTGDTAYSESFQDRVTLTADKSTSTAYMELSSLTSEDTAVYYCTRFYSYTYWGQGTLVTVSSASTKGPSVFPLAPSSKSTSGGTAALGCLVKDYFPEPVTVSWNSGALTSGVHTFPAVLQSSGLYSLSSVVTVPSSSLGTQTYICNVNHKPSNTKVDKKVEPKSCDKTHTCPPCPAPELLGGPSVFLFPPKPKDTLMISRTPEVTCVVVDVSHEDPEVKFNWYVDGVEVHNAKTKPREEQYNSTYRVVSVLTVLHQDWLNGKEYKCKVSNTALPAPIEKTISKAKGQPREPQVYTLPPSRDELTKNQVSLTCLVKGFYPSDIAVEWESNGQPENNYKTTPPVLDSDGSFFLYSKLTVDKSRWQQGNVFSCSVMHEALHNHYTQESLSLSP
light: B1 light
In the case of B4, the “Binding to human FcgRs (parent B3 = 100)” value [1] is reported as 138 parent B3 = 100, the “Binding to human FcgRs (parent B3 = 100)” value [2] is reported as 127 parent B3 = 100 and the “Binding to human FcgRs (parent B3 = 100)” value [3] is reported as 195 parent B3 = 100.

B5: GpH7-B3 variant P271D/GpL16-k0 (antibody, human IgG1, kappa)
heavy: not shown
light: B1 light
In the case of B5, the “Binding to human FcgRs (parent B3 = 100)” value [2] is reported as 55 parent B3 = 100 and the “Binding to human FcgRs (parent B3 = 100)” value [3] is reported as 110 parent B3 = 100.

B6: GpH7-B3 variant L235W/GpL16-k0 (antibody, human IgG1, kappa)
heavy: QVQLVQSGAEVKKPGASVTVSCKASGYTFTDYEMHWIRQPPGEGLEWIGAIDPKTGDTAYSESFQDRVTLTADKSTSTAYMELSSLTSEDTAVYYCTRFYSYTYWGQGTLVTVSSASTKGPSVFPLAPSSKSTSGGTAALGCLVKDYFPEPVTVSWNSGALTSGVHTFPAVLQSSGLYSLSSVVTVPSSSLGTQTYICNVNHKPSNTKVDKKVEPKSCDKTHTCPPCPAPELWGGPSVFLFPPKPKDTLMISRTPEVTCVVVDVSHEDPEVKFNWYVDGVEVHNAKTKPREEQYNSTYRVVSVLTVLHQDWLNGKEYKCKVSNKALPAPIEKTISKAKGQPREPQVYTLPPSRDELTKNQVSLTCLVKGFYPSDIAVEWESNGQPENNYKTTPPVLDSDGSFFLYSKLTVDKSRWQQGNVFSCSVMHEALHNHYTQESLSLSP
light: B1 light
In the case of B6, the “Binding to human FcgRs (parent B3 = 100)” value [1] is reported as 136 parent B3 = 100, the “Binding to human FcgRs (parent B3 = 100)” value [2] is reported as 128 parent B3 = 100 and the “Binding to human FcgRs (parent B3 = 100)” value [3] is reported as 130 parent B3 = 100.

B7: GpH7-B3 variant K334V/GpL16-k0 (antibody, human IgG1, kappa)
heavy: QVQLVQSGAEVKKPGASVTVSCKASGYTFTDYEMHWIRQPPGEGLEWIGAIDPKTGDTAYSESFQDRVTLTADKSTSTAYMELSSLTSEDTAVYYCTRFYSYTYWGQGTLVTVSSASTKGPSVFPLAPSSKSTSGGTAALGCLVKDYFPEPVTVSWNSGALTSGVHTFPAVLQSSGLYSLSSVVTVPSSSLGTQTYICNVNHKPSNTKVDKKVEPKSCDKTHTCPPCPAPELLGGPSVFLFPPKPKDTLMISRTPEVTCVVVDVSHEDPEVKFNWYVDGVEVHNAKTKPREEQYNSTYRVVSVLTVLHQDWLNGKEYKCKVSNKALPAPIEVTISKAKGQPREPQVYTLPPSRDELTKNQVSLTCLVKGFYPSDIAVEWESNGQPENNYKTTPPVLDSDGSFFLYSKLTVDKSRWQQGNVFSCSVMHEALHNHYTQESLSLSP
light: B1 light
B7 was tested, and the “Binding to human FcgRs (parent B3 = 100)” value [1] was 172 parent B3 = 100, the “Binding to human FcgRs (parent B3 = 100)” value [2] was 132 parent B3 = 100 and the “Binding to human FcgRs (parent B3 = 100)” value [3] was 184 parent B3 = 100.

B8: GpH7-B3 variant S239P/GpL16-k0 (antibody, human IgG1, kappa)
heavy: not shown
light: B1 light
For B8, the “Binding to human FcgRs (parent B3 = 100)” value [1] was 49 parent B3 = 100 and the “Binding to human FcgRs (parent B3 = 100)” value [3] was 61 parent B3 = 100.

B9: GpH7-B3 variant V266F/GpL16-k0 (antibody, human IgG1, kappa)
heavy: not shown
light: B1 light
B9 was tested, and the “Binding to human FcgRs (parent B3 = 100)” value [3] was 88 parent B3 = 100.

B10: GpH7-B3 variant P238Q/GpL16-k0 (antibody, human IgG1, kappa)
heavy: not shown
light: B1 light
B10 was tested, and the “Binding to human FcgRs (parent B3 = 100)” value [1] was 19 parent B3 = 100, the “Binding to human FcgRs (parent B3 = 100)” value [2] was 4 parent B3 = 100 and the “Binding to human FcgRs (parent B3 = 100)” value [3] was 43 parent B3 = 100.

B11: GpH7-B3 variant G236S/GpL16-k0 (antibody, human IgG1, kappa)
heavy: not shown
light: B1 light
With B11 the “Binding to human FcgRs (parent B3 = 100)” value [1] was 147 parent B3 = 100, the “Binding to human FcgRs (parent B3 = 100)” value [2] was 161 parent B3 = 100 and the “Binding to human FcgRs (parent B3 = 100)” value [3] was 87 parent B3 = 100.

B12: GpH7-B3 variant A327I/GpL16-k0 (antibody, human IgG1, kappa)
heavy: not shown
light: B1 light
For B12, the “Binding to human FcgRs (parent B3 = 100)” value [1] was 37 parent B3 = 100, the “Binding to human FcgRs (parent B3 = 100)” value [2] was 12 parent B3 = 100 and the “Binding to human FcgRs (parent B3 = 100)” value [3] was 46 parent B3 = 100.

B13: GpH7-B3 variant K334D/GpL16-k0 (antibody, human IgG1, kappa)
heavy: not shown
light: B1 light
With B13 the “Binding to human FcgRs (parent B3 = 100)” value [1] was 97 parent B3 = 100, the “Binding to human FcgRs (parent B3 = 100)” value [2] was 72 parent B3 = 100 and the “Binding to human FcgRs (parent B3 = 100)” value [3] was 108 parent B3 = 100.

B14: GpH7-B3 variant H268D/GpL16-k0 (antibody, human IgG1, kappa)
heavy: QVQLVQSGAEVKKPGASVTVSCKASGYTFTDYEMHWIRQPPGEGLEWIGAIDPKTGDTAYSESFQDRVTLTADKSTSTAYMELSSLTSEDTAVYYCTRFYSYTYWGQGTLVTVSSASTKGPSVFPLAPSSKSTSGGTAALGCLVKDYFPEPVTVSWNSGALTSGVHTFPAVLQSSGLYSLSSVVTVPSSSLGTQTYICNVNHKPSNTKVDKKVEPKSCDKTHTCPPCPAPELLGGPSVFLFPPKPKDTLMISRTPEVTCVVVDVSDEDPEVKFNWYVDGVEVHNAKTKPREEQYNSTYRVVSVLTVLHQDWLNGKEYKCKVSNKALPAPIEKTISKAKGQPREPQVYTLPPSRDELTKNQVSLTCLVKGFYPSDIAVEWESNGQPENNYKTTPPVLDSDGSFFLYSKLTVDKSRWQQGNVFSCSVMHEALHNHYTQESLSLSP
light: B1 light
In the case of B14, the “Binding to human FcgRs (parent B3 = 100)” value [1] is reported as 173 parent B3 = 100, the “Binding to human FcgRs (parent B3 = 100)” value [2] is reported as 142 parent B3 = 100 and the “Binding to human FcgRs (parent B3 = 100)” value [3] is reported as 307 parent B3 = 100.

B15: GpH7-B3 variant L328T/GpL16-k0 (antibody, human IgG1, kappa)
heavy: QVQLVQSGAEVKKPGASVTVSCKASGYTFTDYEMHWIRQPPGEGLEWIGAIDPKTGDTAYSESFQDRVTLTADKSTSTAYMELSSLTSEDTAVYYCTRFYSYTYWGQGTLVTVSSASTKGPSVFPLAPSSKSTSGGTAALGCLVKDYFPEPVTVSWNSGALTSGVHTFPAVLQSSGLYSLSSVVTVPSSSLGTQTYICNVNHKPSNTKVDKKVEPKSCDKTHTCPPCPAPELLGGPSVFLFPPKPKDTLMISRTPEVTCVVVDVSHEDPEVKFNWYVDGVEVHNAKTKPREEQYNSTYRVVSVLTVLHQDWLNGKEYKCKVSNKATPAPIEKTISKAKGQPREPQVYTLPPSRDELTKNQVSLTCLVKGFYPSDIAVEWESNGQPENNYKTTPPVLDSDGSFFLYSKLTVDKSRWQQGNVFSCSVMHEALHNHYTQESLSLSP
light: B1 light
With B15 the “Binding to human FcgRs (parent B3 = 100)” value [1] was 156 parent B3 = 100, the “Binding to human FcgRs (parent B3 = 100)” value [2] was 135 parent B3 = 100 and the “Binding to human FcgRs (parent B3 = 100)” value [3] was 179 parent B3 = 100.

B16: GpH7-B3 variant N325F/GpL16-k0 (antibody, human IgG1, kappa)
heavy: not shown
light: B1 light
B16 was tested, and the “Binding to human FcgRs (parent B3 = 100)” value [1] was 65 parent B3 = 100 and the “Binding to human FcgRs (parent B3 = 100)” value [3] was 72 parent B3 = 100.

B17: GpH7-B3 variant P238Y/GpL16-k0 (antibody, human IgG1, kappa)
heavy: not shown
light: B1 light
For B17, the “Binding to human FcgRs (parent B3 = 100)” value [1] was 93 parent B3 = 100 and the “Binding to human FcgRs (parent B3 = 100)” value [3] was 114 parent B3 = 100.

B18: GpH7-B3 variant L234W/GpL16-k0 (antibody, human IgG1, kappa)
heavy: not shown
light: B1 light
With B18 the “Binding to human FcgRs (parent B3 = 100)” value [1] was 64 parent B3 = 100, the “Binding to human FcgRs (parent B3 = 100)” value [2] was 63 parent B3 = 100 and the “Binding to human FcgRs (parent B3 = 100)” value [3] was 90 parent B3 = 100.

B19: GpH7-B3 variant L234Y/GpL16-k0 (antibody, human IgG1, kappa)
heavy: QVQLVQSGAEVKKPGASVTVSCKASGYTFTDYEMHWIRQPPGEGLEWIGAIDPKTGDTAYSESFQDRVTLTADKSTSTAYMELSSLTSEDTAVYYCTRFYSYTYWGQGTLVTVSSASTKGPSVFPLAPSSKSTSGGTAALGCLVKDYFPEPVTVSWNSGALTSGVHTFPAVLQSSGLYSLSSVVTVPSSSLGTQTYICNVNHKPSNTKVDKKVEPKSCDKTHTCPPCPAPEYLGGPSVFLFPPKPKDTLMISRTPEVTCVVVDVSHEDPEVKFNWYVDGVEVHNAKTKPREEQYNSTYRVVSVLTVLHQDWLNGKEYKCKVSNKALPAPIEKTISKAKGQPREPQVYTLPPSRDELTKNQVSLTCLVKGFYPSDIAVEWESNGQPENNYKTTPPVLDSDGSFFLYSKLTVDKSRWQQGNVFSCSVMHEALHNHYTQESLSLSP
light: B1 light
B19 was tested, and the “Binding to human FcgRs (parent B3 = 100)” value [1] was 38 parent B3 = 100, the “Binding to human FcgRs (parent B3 = 100)” value [2] was 50 parent B3 = 100 and the “Binding to human FcgRs (parent B3 = 100)” value [3] was 55 parent B3 = 100.

B20: GpH7-B3 variant K334I/GpL16-k0 (antibody, human IgG1, kappa)
heavy: not shown
light: B1 light
B20 was tested, and the “Binding to human FcgRs (parent B3 = 100)” value [1] was 169 parent B3 = 100, the “Binding to human FcgRs (parent B3 = 100)” value [2] was 137 parent B3 = 100 and the “Binding to human FcgRs (parent B3 = 100)” value [3] was 174 parent B3 = 100.

B21: GpH7-B3 variant N325E/GpL16-k0 (antibody, human IgG1, kappa)
heavy: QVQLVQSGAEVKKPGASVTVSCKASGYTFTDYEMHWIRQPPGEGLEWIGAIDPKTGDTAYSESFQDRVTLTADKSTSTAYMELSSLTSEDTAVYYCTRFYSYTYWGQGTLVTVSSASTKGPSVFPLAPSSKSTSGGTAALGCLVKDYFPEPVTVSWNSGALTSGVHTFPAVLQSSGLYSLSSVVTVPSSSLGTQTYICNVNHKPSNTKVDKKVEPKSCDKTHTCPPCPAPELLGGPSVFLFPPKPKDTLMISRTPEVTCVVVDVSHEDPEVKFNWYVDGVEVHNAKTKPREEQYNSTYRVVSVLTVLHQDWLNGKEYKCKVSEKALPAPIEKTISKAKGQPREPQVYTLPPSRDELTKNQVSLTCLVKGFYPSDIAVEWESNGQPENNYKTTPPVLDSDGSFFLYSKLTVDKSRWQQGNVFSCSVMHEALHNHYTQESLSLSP
light: B1 light
With B21 the “Binding to human FcgRs (parent B3 = 100)” value [1] was 49 parent B3 = 100, the “Binding to human FcgRs (parent B3 = 100)” value [2] was 13 parent B3 = 100 and the “Binding to human FcgRs (parent B3 = 100)” value [3] was 40 parent B3 = 100.

B22: GpH7-B3 variant G236E/GpL16-k0 (antibody, human IgG1, kappa)
heavy: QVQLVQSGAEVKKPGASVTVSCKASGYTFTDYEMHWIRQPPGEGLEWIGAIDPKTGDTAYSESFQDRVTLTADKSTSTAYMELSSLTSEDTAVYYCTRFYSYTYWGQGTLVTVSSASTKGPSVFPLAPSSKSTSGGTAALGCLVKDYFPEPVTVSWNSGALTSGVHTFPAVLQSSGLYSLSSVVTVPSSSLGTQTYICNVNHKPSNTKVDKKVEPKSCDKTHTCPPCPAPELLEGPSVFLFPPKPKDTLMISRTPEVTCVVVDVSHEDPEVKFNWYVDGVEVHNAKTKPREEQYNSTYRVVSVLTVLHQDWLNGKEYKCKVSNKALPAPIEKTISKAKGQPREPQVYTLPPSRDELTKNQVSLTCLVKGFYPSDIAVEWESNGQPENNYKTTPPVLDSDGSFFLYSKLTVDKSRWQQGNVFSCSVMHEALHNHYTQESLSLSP
light: B1 light
For B22, the “Binding to human FcgRs (parent B3 = 100)” value [1] was 142 parent B3 = 100, the “Binding to human FcgRs (parent B3 = 100)” value [2] was 131 parent B3 = 100 and the “Binding to human FcgRs (parent B3 = 100)” value [3] was 117 parent B3 = 100.

B23: GpH7-B3 variant I332D/GpL16-k0 (antibody, human IgG1, kappa)
heavy: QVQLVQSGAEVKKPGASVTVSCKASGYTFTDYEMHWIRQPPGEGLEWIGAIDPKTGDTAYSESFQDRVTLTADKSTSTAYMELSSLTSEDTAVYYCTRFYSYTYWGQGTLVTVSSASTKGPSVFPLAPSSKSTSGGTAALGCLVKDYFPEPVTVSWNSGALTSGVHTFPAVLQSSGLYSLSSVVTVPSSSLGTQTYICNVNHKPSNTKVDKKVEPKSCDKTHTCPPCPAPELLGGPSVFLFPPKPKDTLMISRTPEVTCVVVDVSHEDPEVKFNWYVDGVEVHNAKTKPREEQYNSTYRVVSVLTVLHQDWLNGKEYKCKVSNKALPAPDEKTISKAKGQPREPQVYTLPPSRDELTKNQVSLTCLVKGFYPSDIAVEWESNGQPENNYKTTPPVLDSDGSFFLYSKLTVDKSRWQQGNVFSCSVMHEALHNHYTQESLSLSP
light: B1 light
B23 was tested, and the “Binding to human FcgRs (parent B3 = 100)” value [1] was 129 parent B3 = 100, the “Binding to human FcgRs (parent B3 = 100)” value [2] was 139 parent B3 = 100 and the “Binding to human FcgRs (parent B3 = 100)” value [3] was 198 parent B3 = 100.

B24: GpH7-B3 variant K334M/GpL16-k0 (antibody, human IgG1, kappa)
heavy: not shown
light: B1 light
B24 was tested, and the “Binding to human FcgRs (parent B3 = 100)” value [1] was 151 parent B3 = 100, the “Binding to human FcgRs (parent B3 = 100)” value [2] was 127 parent B3 = 100 and the “Binding to human FcgRs (parent B3 = 100)” value [3] was 148 parent B3 = 100.

B25: GpH7-B3 variant G236D/GpL16-k0 (antibody, human IgG1, kappa)
heavy: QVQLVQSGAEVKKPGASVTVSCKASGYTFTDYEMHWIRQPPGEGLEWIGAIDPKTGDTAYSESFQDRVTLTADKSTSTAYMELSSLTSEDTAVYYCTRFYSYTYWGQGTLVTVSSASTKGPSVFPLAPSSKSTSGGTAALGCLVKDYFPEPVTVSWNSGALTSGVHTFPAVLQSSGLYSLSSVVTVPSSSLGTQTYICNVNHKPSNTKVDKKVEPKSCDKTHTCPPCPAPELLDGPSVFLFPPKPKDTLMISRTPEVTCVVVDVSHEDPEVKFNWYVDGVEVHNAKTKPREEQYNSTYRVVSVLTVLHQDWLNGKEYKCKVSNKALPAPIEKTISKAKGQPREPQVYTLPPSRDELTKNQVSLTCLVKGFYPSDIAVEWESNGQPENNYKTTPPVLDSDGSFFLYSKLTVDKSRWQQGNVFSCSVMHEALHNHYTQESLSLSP
light: B1 light
For B25, the “Binding to human FcgRs (parent B3 = 100)” value [1] was 109 parent B3 = 100, the “Binding to human FcgRs (parent B3 = 100)” value [2] was 91 parent B3 = 100 and the “Binding to human FcgRs (parent B3 = 100)” value [3] was 212 parent B3 = 100.

B26: GpH7-B3 variant G236A/GpL16-k0 (antibody, human IgG1, kappa)
heavy: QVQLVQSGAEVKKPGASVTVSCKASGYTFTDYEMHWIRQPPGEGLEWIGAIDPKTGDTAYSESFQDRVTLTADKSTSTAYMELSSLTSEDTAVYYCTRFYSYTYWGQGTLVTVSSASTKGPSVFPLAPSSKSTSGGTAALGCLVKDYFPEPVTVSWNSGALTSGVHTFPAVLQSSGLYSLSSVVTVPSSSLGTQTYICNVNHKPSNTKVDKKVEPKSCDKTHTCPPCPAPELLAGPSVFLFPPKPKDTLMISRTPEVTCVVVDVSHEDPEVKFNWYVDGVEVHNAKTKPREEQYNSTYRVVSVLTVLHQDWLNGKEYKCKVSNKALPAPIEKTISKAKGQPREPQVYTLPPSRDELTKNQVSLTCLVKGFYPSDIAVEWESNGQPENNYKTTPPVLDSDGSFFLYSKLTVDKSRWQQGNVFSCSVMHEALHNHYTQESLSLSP
light: B1 light
For B26, the “Binding to human FcgRs (parent B3 = 100)” value [1] was 165 parent B3 = 100, the “Binding to human FcgRs (parent B3 = 100)” value [2] was 168 parent B3 = 100 and the “Binding to human FcgRs (parent B3 = 100)” value [3] was 94 parent B3 = 100.

B27: GpH7-B3 variant K334Y/GpL16-k0 (antibody, human IgG1, kappa)
heavy: not shown
light: B1 light
B27 was tested, and the “Binding to human FcgRs (parent B3 = 100)” value [1] was 157 parent B3 = 100, the “Binding to human FcgRs (parent B3 = 100)” value [2] was 131 parent B3 = 100 and the “Binding to human FcgRs (parent B3 = 100)” value [3] was 160 parent B3 = 100.
